Measured values: patent publication US20080139466A1

Target: human TSH receptor on stably transfected CHO cells (JP09 cells) (human) (UniProt P16473)
Test: cell-based or functional assay

Sequence of UniProt P16473 (P16473 21-764): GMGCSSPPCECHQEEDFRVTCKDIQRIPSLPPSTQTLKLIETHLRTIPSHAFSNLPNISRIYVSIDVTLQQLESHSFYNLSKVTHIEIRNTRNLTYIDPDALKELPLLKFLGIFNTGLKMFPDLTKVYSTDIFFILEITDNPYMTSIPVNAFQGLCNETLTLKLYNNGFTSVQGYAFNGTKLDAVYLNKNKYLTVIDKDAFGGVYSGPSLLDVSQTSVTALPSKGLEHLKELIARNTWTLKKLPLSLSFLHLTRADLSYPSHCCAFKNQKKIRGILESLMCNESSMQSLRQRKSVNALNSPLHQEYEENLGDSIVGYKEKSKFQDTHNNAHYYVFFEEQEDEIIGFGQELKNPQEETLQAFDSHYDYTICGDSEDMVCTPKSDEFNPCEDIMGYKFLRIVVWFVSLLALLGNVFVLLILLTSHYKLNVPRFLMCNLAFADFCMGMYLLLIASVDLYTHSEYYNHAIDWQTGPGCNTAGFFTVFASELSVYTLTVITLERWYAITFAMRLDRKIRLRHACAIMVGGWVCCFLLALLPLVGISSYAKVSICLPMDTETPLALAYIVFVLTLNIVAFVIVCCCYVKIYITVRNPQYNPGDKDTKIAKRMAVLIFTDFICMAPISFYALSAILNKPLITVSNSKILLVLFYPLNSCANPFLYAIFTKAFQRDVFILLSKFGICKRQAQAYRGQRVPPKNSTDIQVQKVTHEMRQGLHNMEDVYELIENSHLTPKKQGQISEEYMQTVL

Substance	cAMP production (cAMP released into medium, RIA) by JP09 cells [pmol/mL]
feline thyrotropin yoked polypeptide (β-subunit-CTP-α-subunit) (ligand)	70
feline thyrotropin (fTSH) α/β heterodimer (from UniProt Q52R91 25-120; Q52R90 21-132) (ligand)	25
